Test results reported in US20140011214A1.

What was measured:
[1] = target: Antiparallel leucine zipper partner peptide Z′ fused to the C-terminal fragment of superpositive GFP (CspGFP, amino acids 158-231), expressed from pMRBAD-Z′-CspGFP; assay: cell-based or functional assay
[2] = target: Antiparallel leucine zipper partner peptide Z′ fused to the C-terminal fragment of the stabilized GFP variant sg100 (Csg100GFP), expressed from pMRBAD-Z′-Csg100GFP; assay: cell-based or functional assay

cell fluorescence 1 hour after induction at 25° C., against split-frGFP Z/Z′ fusions (% more fluorescent) [1] | cell fluorescence after 24 hours at 37° C., against split-frGFP Z/Z′ fusions (% more fluorescent) [1] | maximum mean cell fluorescence, 12 hours at 25° C., against split-frGFP Z/Z′ fusions [1] | mean cell fluorescence (flow cytometry), 1 hour after induction at 25° C. [1] | mean cell fluorescence (flow cytometry), 2 hours after induction at 25° C. [1] | mean cell fluorescence (flow cytometry), 3 hours after induction at 25° C. [1] | mean cellular fluorescence (flow cytometry) in E. coli after 12 hours at 25° C., compared to uninduced cells [1] | mean cell fluorescence (flow cytometry), 3 hours after induction at 25° C. [2] | mean cellular fluorescence (flow cytometry) in E. coli after 12 hours at 25° C., compared to uninduced cells [2] | Substance
34 | 24 | 22 % brighter | 5 fold | 15 fold | 28 fold | 75 fold |  |  | N-terminal fragment of superpositive GFP (NspGFP, amino acids 1-157) fused to antiparallel leucine zipper peptide Z, expressed from pET11a-Z-NspGFP
 |  |  |  |  |  |  | 1.2 fold | 2.3 fold | N-terminal fragment of the stabilized GFP variant sg100 (Nsg100GFP) fused to antiparallel leucine zipper peptide Z, expressed from pET11a-Z-Nsg100GFP
